In publication PMC5832863, “Solution structure and dynamics of anti-CRISPR AcrIIA4, the Cas9 inhibitor” (Scientific Reports, 2018):

Tests used:
Details in all cases: both partners purified
[1] = molecular target: T1, Streptococcus pyogenes Cas9 (a.a. 1-1368) (S. pyogenes, UniProt Q99ZW2 1-1368); test: ITC; sgRNA-bound SpyCas9 titrated with AcrIIA4; 25 °C; one-site binding model
T1 construct: Cas9 RNA-guided endonuclease of Streptococcus pyogenes, residues 1-1368, synthetic gene in pET28b; the two states are told apart by the assay; also called SpyCas9; apo-SpyCas9; source: E. coli BL21(DE3), purified (HisTrap HP, HiTrap SP, Superdex200)
T1 sequence (Q99ZW2 whole entry, the tested form may be a part): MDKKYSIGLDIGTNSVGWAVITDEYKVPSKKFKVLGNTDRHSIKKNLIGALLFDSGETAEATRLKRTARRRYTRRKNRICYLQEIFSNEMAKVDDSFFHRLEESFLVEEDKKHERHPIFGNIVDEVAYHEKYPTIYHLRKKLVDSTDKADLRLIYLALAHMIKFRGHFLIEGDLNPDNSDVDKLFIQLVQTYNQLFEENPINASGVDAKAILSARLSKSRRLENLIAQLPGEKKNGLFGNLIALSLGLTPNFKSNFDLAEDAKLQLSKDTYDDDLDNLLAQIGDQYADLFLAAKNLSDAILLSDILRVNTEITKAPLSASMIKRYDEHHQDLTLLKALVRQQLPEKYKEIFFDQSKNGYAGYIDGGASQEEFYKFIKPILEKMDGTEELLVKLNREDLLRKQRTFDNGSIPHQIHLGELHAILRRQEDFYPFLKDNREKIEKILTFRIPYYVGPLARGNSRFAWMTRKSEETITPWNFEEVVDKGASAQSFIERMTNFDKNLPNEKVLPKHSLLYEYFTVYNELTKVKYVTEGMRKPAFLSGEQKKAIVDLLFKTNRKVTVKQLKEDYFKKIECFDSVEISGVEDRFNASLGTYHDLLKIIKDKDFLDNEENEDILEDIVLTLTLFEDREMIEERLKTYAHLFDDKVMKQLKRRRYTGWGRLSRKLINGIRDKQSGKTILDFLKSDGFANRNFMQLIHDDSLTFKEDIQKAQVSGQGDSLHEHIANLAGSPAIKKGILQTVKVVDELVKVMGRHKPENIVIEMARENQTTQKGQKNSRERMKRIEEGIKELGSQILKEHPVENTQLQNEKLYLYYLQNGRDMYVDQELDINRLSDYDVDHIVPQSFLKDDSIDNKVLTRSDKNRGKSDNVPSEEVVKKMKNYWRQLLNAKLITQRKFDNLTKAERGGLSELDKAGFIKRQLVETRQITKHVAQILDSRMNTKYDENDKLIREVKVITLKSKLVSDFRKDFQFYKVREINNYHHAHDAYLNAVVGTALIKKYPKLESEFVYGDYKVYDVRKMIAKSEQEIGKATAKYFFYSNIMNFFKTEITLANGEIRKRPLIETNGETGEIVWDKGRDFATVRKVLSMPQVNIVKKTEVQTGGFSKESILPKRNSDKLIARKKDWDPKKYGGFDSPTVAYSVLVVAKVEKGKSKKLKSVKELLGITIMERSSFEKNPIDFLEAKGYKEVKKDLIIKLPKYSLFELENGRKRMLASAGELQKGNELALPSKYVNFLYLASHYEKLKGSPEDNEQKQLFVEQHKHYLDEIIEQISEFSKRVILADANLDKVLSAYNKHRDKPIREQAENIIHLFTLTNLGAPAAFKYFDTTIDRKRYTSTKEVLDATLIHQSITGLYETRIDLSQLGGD

[2] = molecular target: T1, Streptococcus pyogenes Cas9 (a.a. …); test: ITC; apo-SpyCas9 (no sgRNA): 50 uM SpyCas9 in the cell titrated with 500 uM AcrIIA4; 25 °C; 20 mM sodium phosphate, pH 7.4, 100 mM NaCl, 5 mM BME, 0.01% NaN3; one-site binding model
[3] = molecular target: T1, Streptococcus pyogenes Cas9 (a.a. …); test: as above; remark: listed apart in the source

B1: Listeria monocytogenes anti-CRISPR protein AcrIIA4 (a.a. 1-87) (natural protein, Listeria monocytogenes (prophage), UniProt A0A247D711 1-87, looked up)
chain: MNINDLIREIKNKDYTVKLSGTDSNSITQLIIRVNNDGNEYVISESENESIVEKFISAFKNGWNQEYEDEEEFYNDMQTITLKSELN
notes: AcrIIA4, anti-CRISPR protein encoded by Listeria monocytogenes prophages, residues 1-87, synthetic gene; Cloned into a modified pBT7-N-His vector; also called 15N-AcrIIA4; 13C,15N-AcrIIA4; source: E. coli BL21star(DE3), purified (HisTrap, TEV cleavage, Superdex 75, MonoQ); not shown: His6, N-terminal, cleaved
In the case of B1, the Kd [1] is reported as 0.0006 ± 0.0001 µM, the dH [1] is reported as -10.3 ± 0.1 kcal/mol and the “stoichiometry N” value [2] is reported as 1. It also gave a Kd [3] of 4.8 ± 0.15 µM and a dH [3] of -11.5 ± 0.7 kcal/mol.
